Results taken from the nanobody polyreactivity screen of Harvey et al. (2022).

test: yeast display, Sf9 membrane polyspecificity reagent, FACS + sequencing; frameworks hold sequencing errors
In short: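 Galactose induction of a Saccharomyces cerevisiae BJ5465 synthetic nanobody display library ran 36–48 hours. The cells were then stained for 1 hour at 4 °C with 10% biotinylated, detergent-solubilized Sf9 membrane reagent, pulled down on streptavidin microbeads and FACS-sorted into low and high (top ~1%) gates on expression and reagent-binding fluorescence. Labels for polyreactivity follow the gate of origin.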

| Sequence | polyreactivity (PSR sort gate) |
| --- | --- |
| QVQLVESGGGLVQAGGSLRLSCAASGFIFTGNAMGWYRQAPGKERELLAAISSSGTRTYYADSVKGRFTISRDNASNTVYLQMNSLKPEDTAVYYCNKLYLVWNFYSGYDYWGQGTQVTVSS | high polyreactivity |
| QVQLVESGGGLVQAGGSLSLSCAASGFTLGYYAMGWYRQAPGKERELVAAITSGGGTNYADSVKGRFTISRDNAKNTVYLQMNSLKPEDTAVYYCAARARWIYGMYSWGQGTQVTVSS | low polyreactivity |
| QVQLVESGGGLVQAGGSLRLSCAASGSIFPYYAMGWYRQAPGKERELVAAITWSGGGTYYADSVKGRFTISRDNAKNTGYLQMNSLKPEDTAVYYCAASYRYYWFDYWGQGTQVTVSS | high polyreactivity |
| QVQLVESGGGLVQAGGSLRLSCAASGSIIGIYAMGWYRQAPGKERELVAAISWSGGSTYYADSVKGRFTISRDNAKNTVYLQMNSLKPEDTAVYYCNAYPAYLDDYWGQGTQVTVSS | low polyreactivity |
| QVQLQDSGGGLVQAGGSLRLNCATSGTIFVLWYMGWYRQAPGKERELVATINDGANTYYADSVKGRFTINRDNAYSTVYLKMNSLKPEDTAVYYCAVYAIIVWGLGYWGQGTQVTVSS | high polyreactivity |
| QVQLVESGGGLVQAGGSLRLSCAASGFIFARYAMGWYREAPGKERELLAAITARGGSTYYADSVKGRFTISRDNAKNTVYLQMNSLKPEDTAVYYCADVSGYSTGGYRNRYNYWGQGTHVTVSS | high polyreactivity |
| QVQLVESGGGLVQAGGSLRLSCAASGSTFSGNAMGWYRQAPGKERELVAAITSSGGSTYYADSVKGRFTISRDTAKNTVYLQMNSLKPEDTAVYYCAAKSRRTRRSYYWGQGTQVTVSS | high polyreactivity |
| QVQLVESGGGLVQAGGSLRLSCAASGRIFYGYTMGWYRQAPGKERELVARISSSGSTYYADSVKGRFTISRDNAKNTVYLQMNSLKPEDTAVYYCAAVRRRYGYDYWGQGTQVTVSS | high polyreactivity |
| QVQLVESGGGLVQAGGSLLLSCAASGFTFSGYVMGWYRQAPGKERELVAAISNSGGRTYADSVKGRFTISRDNAKNTVYLQMNSLKPEDTAVYYCAKKPGGFSQASRVDYDYWGQGTQVTVSS | low polyreactivity |
| QVQLVESGGGLVQAGGSLRLSCAASGITFYHYAMGWYRQAPGKERELVAAISSDDNTNYADSVKGRFTISRDNEKNTVYLQMNSLNPEVTAVYYCNKRSLKNEPRYDYWGQGTQVTVSS | high polyreactivity |
| QVQLVESGGGLVQAGGSLRLSCAASGFTFSYYAMGWDRQAPGKERELVAVISNSDGSTYYADSVKGRFTISRDNAKNTVYLQMNSLNPEDTAVYYCAAVPLWDYKFFYYLLYDYWGQGTQVTVSS | low polyreactivity |
| QLHLVESGGGLVQAGGSLRLSCAASGYIFNYNAMGWSRQAPGTQREFVAAISQGGGSTYYADSVKGRFTISRDNSKYTVYLQMNRLKPEDTAVYYCAADYRSGYREMDYWGQGTQVTVSS | low polyreactivity |
| QVQLVESGGGLVQAGGSLRLSCAASGRIFAVYVMGWYRQAPGKERELVAAISQSGGRTYYADSVKGRFTISRDNAKNTVYLQMNSLKPEDTAVYYCNTVTSRATNFSGFGYWGQGTQVTVSS | high polyreactivity |
| QVQLVESGGGLVQAGGSLRLSCAASGSIFAIYTMGWYRQAPGKVRELVAGITKSGGNTYYADSVKGRFTISRDNAKNTVYLQMNSLKPEDTSVYYCAASQYEYYDGWYRYDYWGQGTQVTVSS | high polyreactivity |
| QVQLVESGGGLVQAGGSLRLSCAASGRTLGRYAMGWYRQAPGKERELVAAMNVGGGTTHYADSVKGRFTISRDNAKNTVYLQMNSLKPEDTAVYYCAAYRYTYGDRHAYDYWGQGTQVTVSS | low polyreactivity |
| QVQLVESGGGLVQAGGSLRLSCAASGLTSGYYAMGWYRQAPGKEREFVAAITWRSGSTYYADSVKGRFTISRDNAKNTVYLQMNSLKPEDTAVYYCAAVSVIYHGHNRSTYEYWGQGTQVTVSS | high polyreactivity |
| QVQLVESGGCLVQAGGSLRLSCAASGFTFYRSVMGWYRQAPGKERELVAAITSDGGSTYYAVSVKGRFTISRDNGKNTVYLQMNSLKPEDTAVYYCSADASTWYTEEYWGQGNQVTVSS | low polyreactivity |
| QVQLVESGGGLVQAGGSLRLSCAASGRTFVWYAMGWYRQAPGKERELVAAITLSGGSTYYADSVKGRFTISRDNAKNTVYLQMNSLKPEDTAVYYCAADGTYRPEDYDYWGQGTQVTVSS | low polyreactivity |
| QVQHGESGGGLVQAGGSLRLSCAASGRIFYYYAMGWYRQAPGKERELVAAITWNAGITYYADSVKGRFTISRDNAKNTVYLQMNSLKPEDSAVYYCAASRWARGRDYWGQGTQVTVSS | high polyreactivity |
| QVQLVESGGGLVQAGGSLRLSCAASGSSFRRYAMGWYRQAPGKERELVATIRSGGSTTYADSVKGRFTISRDNAKNTVYLQMNSLKPEDTAVYFFAAGTKPSYYYWGQGTQVTVSS | low polyreactivity |
| QVHLVESGGGLVQAGGSLRISFAASGRTFPYYDMGWYRQAPGKERELVAAINSGGRTNYADSVKGRFTISRDNAKNTVYLQLNSLKPEDTAVYYCTKRGHPSRLGYYYWGLGTQVTVSS | low polyreactivity |
| QVQLVESGGGLVQAGGSLRLSCAASGFTILRYAMGWYRQAPGKERDLVAAISTSGGSTSYADSVKGRFTISRDNAKNTVYVQMYSLKPEDSAVYYCKAVLYKAYWQLYDYWGQGSQVTVSS | high polyreactivity |
| QVQLVESGGGLVQAGGSLRLSCAASGFTFPFYTMGWYRQAPGKERELVAAITRSGASTFYADSVKGRFTISRDNAMNTVYLQMNSLKPEDTAVYYCATQLHRYYQDDYWGQGTQVTVSS | high polyreactivity |
| QVQRVESAGGLVQARGSLRLSSAASGRIFKAYAMGCYRQAPGKERELVAAISRSGGNTYYADSVKGRFTISRDNAKYTVYLQLNSLKPEETAVYYCAARRFWGSDYDYWGQGTQVTVSS | high polyreactivity |
| QVQLVESGGGLVQAGGSLRLSCAASGRIFFYYAMGWYRQAPGKERELVAAINRGGRTYYADSVKGRFTISRDNAKNTVYLQMNSLKPEDTAVYYCAADGQTAKSNFDYWGQGTQVTVSS | low polyreactivity |
| QVQLVESGGGLVQAGGSLRLRCAASGSTFSEYAMGWYRQAPGKERELVAAISYNGGSTYYADSVKGRFTISRDNAKNTVYLQMNSLKPEDTAVYYCNAKLFYDRYDYWGQGTQVTVSS | low polyreactivity |
| QVQLVESGGGLVQAGGSLRLSCAASGRIFGSYAMGWYRQAPGKERELVAAITRSGGSTYYADSVKGRFTISRDNAKNTVYLQMNSLKPEDTAVYYCAAYFRFSGSAKFGYWGQGTQVTVSS | high polyreactivity |
| QVQLVDTGGGLVQAGGSLRLSCAASGLTFQQYAMGWYRQAPRKERELVAAITSDGASTNYADSVKGRFTNSRDNAKNTVYLQMNSLKPEDCAVYYCAAGRRSRQYRYVYWGQGTQVTVSS | high polyreactivity |
| QVQLVESGGGLVQAGCSLRLICAASGSTFDPNAMGWYRQSPGKERQLVAVIDSGDGTTYYADSVKGRFTISRDNAKNTVYLQMNSLKPEDTAVYYCAVDESTSYYDDHEDYWGQGTQVTVSS | low polyreactivity |
| QVQLVESVGGLVQAGGSLRLSCAASGITFRWNAMGRYRQATGKERELVAAIRRSGRTYYADSVKGRFTISRDNAKNTVYLQMNSLKPEDTAVYYCAAVSGYRSSKYDYWGQGTQVTVSS | high polyreactivity |
